The values that follow come from patent US20070041901, “Stabilized aptamers to PSMA and their use as prostate cancer therapeutics” (published 2007).

For series [1], the target named is T1, PSMA (prostate-specific membrane antigen) extracellular domain (Homo sapiens, UniProt Q04609 SEQ:23-728). Nature of the series: filter; dot blot, 1x SHMCK pH 7.4 (1 mM Mg, Ca), room temp, no tRNA. Particulars: label: 32P 5'-end.
Series [2] deals with T1, PSMA (prostate-specific membrane …). Nature of the series: filter; dot blot; max bound 52%. The procedure:
(§1) Dot Blot Binding Analysis. Dot blot binding assays were performed throughout the selections to monitor the protein binding affinity of the pools. For initial pool screening, trace ³²P-labeled pool RNA was combined with PSMA and incubated at room temperature for 30 min in 1×SHMCK buffer pH 7.4 (20 mM Hepes pH 7.4, 120 mM NaCl, 5 mM KCl, 1 mM MgCl₂, […]) plus 0.1 mg/mL tRNA in a final volume of 30 μl. The mixture was applied to a dot blot apparatus (Schleicher and Schuell Minifold-1 Dot Blot, Acrylic, Keene, N.H.), assembled (from top to bottom) with nitrocellulose, nylon, and gel blot membranes. RNA that is bound to protein is captured on the nitrocellulose filter; whereas the non-protein bound RNA is captured on the nylon filter. […] The Round 9 pool was cloned and screened in a single point dot blot assay using 100 nM PSMA (0 nM PSMA was used as a negative control). Clone transcripts were 5′end labeled with ³²-P ATP. Likely binders were than assayed for KD determination by the blot assay conditions described directly above, but without tRNA, using an 8 point PSMA titration with a constant RNA concentration. […] Both of the clones screened were unique sequences in the Round 9 selection pool.
(§2) In order to identify the core structural elements required for ARC955 binding to PSMA, the 3′-boundaries of the clone was determined through alkaline hydrolysis.

For series [3] the target is unchanged. Nature of the series: filter; no binding in dot blot. As for the experimental part: as §1, §2
Series [4] shares this target. Nature of the series: filter; dot blot; max bound 22%. As for the experimental part: as §1, §2
For series [5] the target is unchanged. Nature of the series: FP filter; dot blot, nitrocellulose; max bound 33%. The procedure:
as §1, §2

For series [6] the target is unchanged. Nature of the series: filter; dot blot without tRNA. The following applies: hairpin with conserved 16-nt loop, A-rich asymmetric bulge.
Series [7] shares this target. Nature of the series: inhibition; NAALADase inhibition, 40 mM Tris pH 7.4, 0.1 mM ZnSO4, 37 C. The following applies: hairpin with conserved 16-nt loop, A-rich asymmetric bulge.

T1 sequence (Q04609 45-750): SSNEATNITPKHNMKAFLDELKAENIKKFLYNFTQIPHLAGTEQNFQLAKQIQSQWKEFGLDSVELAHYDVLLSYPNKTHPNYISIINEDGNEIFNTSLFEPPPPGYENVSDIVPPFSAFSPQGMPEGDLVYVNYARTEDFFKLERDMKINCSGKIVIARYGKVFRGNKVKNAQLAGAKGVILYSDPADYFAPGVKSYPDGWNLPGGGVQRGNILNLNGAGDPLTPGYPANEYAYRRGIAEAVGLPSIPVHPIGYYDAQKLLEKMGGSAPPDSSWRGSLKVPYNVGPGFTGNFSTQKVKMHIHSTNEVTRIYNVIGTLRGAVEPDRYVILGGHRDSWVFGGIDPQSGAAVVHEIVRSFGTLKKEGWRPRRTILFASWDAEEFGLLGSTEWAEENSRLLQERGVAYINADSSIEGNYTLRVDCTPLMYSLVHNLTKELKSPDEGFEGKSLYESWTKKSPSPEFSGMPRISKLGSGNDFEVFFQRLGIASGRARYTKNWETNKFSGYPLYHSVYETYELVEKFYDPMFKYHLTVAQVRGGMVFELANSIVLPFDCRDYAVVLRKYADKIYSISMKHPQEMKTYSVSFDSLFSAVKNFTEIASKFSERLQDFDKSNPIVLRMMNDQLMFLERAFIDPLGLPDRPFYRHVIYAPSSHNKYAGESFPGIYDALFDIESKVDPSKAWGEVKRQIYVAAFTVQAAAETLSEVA

B1: ARC955 (G2) (ssRNA)
RNA: GGGAGAGGAGAGAACGUUCUACUAUGGGUGGCUGGGAGGGGAAGAGGGAGUAGGUCGAUCGAUCGAUCAUCGAUG
modifications: 2'-OMe A, C, U; 2'-OH G (rGmH)
B1: the equilibrium dissociation constant (Kd) (commonly the equilibrium constant for the complex coming apart) in series [1] stood at 9 nM.

For AGAGGAGAGAACGUUCUACUAUGGGUGGCUGGGAGGGG (ssRNA, 2'-OMe A, C, U; 2'-OH G (rGmH)) [ARC1091], in series [2], the affinity, expressed as Kd, was 3.1 nM.

B2: ARC956 (G8) (ssRNA)
RNA: GGGGAGAGGAGAGAACGUUCUACACAUGGGUCGGGUGAGUGGCAAAGGAAUAGGUCGAUCGAUCGAUCAUCGAUG
modifications: 2'-OMe A, C, U; 2'-OH G (rGmH)
In series [1], B2 came in with a Kd of 16 nM.

On to CUACUACACAUGGGUCGGGUGAGUGGCAAAGGAAUAGUAG (ssRNA, 2'-OMe A, C, U; 2'-OH G (rGmH)) [ARC725], for which the binding result in series [3] is on record as “no binding”.

CUACUGGGUGGCUGGGAGGGGAAGAGGGAGUAG (ssRNA, 2'-OMe A, C, U; 2'-OH G (rGmH)) [ARC1089]: in series [4], binding was put at a Kd of 9.3 nM.

GGGUGGCUGGGAGGGGAAGAGGG (ssRNA, 2'-OMe A, C, U; 2'-OH G (rGmH)) [ARC1088] came in with an equilibrium dissociation constant (Kd) in series [5] of 2.1 nM.

In turn, GGAGGACCGAAAAAGACCUGACUUCUAUACUAAGUCUACGUUCCUCCA (ssRNA, 2'-F C and U; 2'-OH A and G) [ARC591] registered a dissociation constant Kd in series [6] of 3.4 nM. Further, the IC50 – broadly, the concentration at which inhibition is half-maximal – in series [7] stood at 6.7 nM.
